Drawing on article PMC4989506, this text covers response of properdin coated on the C3b surface and K1/2 (concentration for one substance.

One assay has as its target C3b (human) (UniProt P01024). Nature of the assay: SPR. (Surface plasmon resonance follows binding to a sensor surface in real time, without labels.)
Assay [1] concerns the target recombinant albicin (Anopheles albimanus complement inhibitor) (Anopheles albimanus). Nature of the assay: SPR.

properdin, sequence (P27918 28-469): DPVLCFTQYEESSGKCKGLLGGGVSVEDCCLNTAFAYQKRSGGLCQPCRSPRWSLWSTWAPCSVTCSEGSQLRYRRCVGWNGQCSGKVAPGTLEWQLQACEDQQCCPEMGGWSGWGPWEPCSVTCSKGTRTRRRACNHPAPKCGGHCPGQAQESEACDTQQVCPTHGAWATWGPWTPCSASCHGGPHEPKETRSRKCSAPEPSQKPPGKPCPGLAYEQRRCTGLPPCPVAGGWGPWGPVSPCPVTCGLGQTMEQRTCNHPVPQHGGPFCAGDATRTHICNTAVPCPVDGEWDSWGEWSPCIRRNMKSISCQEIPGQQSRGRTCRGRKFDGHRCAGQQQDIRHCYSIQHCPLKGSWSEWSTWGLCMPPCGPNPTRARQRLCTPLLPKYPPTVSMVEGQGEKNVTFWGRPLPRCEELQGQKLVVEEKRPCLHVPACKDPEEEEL
recombinant albicin (Anopheles albimanus complement inhibitor) (Anopheles albimanus), sequence (A0A1Y9G8D0 27-142, tags left off): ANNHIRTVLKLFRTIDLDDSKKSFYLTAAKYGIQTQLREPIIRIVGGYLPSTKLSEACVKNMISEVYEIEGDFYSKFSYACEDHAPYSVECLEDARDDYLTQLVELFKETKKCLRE

“properdin (from UniProt P27918 28-469) (natural protein)” returned a response of properdin coated on the C3b surface with C3b (human) of 1200 RU. In addition, the K1/2 (concentration at half-saturation) in assay [1] came to 11.6 nM.
